Target: T1, ProteinA (UniProt P38507)
T1 construct: the form on the sensor is not described; Sensor-chip Protein A is probably a recombinant form; also called ProteinA sensor chip; ProteinA-CM5; source: on SPR sensor chips (ProteinA chip or ProteinA-conjugated CM5 chip)
Assay: SPR; calibration-free concentration analysis (CFCA) on Biacore T200, 1x PBST; NISTmAb 8671 as analyte over ProteinA/ProteinG sensors to assign form factors
Conditions: both partners purified

B1: NISTmAb 8671 (antibody, V domains shown)
VH: QVTLRESGPALVKPTQTLTLTCTFSGFSLSTAGMSVGWIRQPPGKALEWLADIWWDDKKHYNPSLKDRLTISKDTSKNQVVLKVTNMDPADTATYYCARDMIFNFYFDVWGQGTTVTVSS
VL: DIQMTQSPSTLSASVGDRVTITCSASSRVGYMHWYQQKPGKAPKLLIYDTSKLASGVPSRFSGSGSGTEFTLTISSLQPDDFATYYCFQGSGYPFTFGGGTKVEIK
  binding result: binds

— PMC11044105, “Overcoming Lot-to-Lot Variability in Protein Activity Using Epitope-Specific Calibration-Free Concentration Analysis” (Analytical Chemistry, 2024)
